Data as given in patent publication US7405286B2, “Stars—A muscle-specific actin-binding protein” (The Board of Regents of the University of Texas System, priority 2002, dated 2008).
Entries after “also recorded” stand apart in the source; their conditions may differ.

Columns and labels:
SM22 promoter = assay: SM22-luciferase reporter assay in transiently transfected COS cells; format: cell-based; settings: for effect on SRF / SM22 promoter activation by STARS, in words (discussion): COS cells transfected with STARS
Excerpt: STARS Expression Plasmids. STARS expression constructs were generated using the pcDNA3.1 mammalian expression vector (Invitrogen) which was modified to contain an amino-terminal Myc-tag. Constitutively active RhoA (L63) and C3 transferase in Prk5 were generously provided by Dr. Alan Hall (University College, London, United Kingdom). The SM22-luciferase reporter 1343 bp promoter has been previously described (Li et al., 1995). The smooth muscle α actin-luciferase reporter contained the 4 kb promoter region ligated into the pBL3basic vector (Promega). The ANF reporter contained the 638 bp promoter region (a generous gift from Dr. Mona Nemer, Universite de Montreal, Montreal, Quebec, Canada). The 4× cfos reporter contained four tandem copies of the cfos CArG box with flanking sequences, as described (Chang et al., 2001). CMV-lacZ (Promega) was used as an internal control for transfection efficiency.
(§1) Transient Transfections, Reporter Assays and Immunofluorescence Microscopy. COS cells were maintained in DMEM with 10% FBS. Eighteen hours after plating, the medium was changed to serum-free medium and transfections were performed at 50% confluency using FuGENE reagent-6 (Roche Molecular Biochemicals) following manufacturer's instructions. Each transfection used 0.15 μg of plasmid DNA for the reporter assays, and 0.5-1.0 μg immunohistochemistry. Cytochalasin D 2 μM (Sigma-Aldrich), and Y-27632 75 μM (Tocris) were added directly just after transfection. Latrunculin B 0.5 μM (dissolved in 10% ethanol, Calbiochem) was added 12 hr after transfection and 10% ethanol (final concentration 0.01%) was added to control wells. Cells were harvested 36 hr after transfection and their luciferase and β-galactosidase activity were measured.

F-actin = assay: Immunofluorescence / Phalloidin-TRITC staining of transfected COS cells; format: cell-based; settings: for stress fibers observed: STARS-transfected COS cells, 2 μM CD or 0.5 μM LB, data not shown; for association with F-actin / actin stress fibers / bundling of actin stress fibers: transfected COS cells, Myc-tagged proteins
Experimental: as §1
For measuring immunofluorescence, cells were rinsed with PBS and fixed in 4% paraformaldehyde for 10 min on ice. After rinsing with PBS, COS cells were incubated in 0.1% Triton X-100 in PBS for 5 min on ice. For rat neonatal cardiomyocytes, 1% Triton X-100 in PBS was used. Cells were blocked for 20 min at room temperature in 0.5% BSA in PBS for COS cells and in 1% BSA plus 3% goat serum in PBS for rat cardiomyocytes. Then, cells were incubated with first antibody diluted in 0.5% BSA in PBS for 30-60 min at room temperature or overnight at 4° C. Anti c-myc monoclonal antibody 9E10 (Santa Cruz) was used at a 1:200 dilution. Other antibodies were anti α-actinin monoclonal antibody (1:400; Sigma-Aldrich), α-tubulin antibody (1:2000; Sigma-Aldrich) and anti-vimentin antibody (1:500; Sigma-Aldrich). Secondary antibodies were anti mouse/rabbit IgG FITC or Texas red (Vector) used at a 1:200 dilution incubated with or without Phalloidin-TRITC (1:500; Sigma Aldrich).

actin = assay: Co-immunoprecipitation of Myc-tagged proteins with actin in COS cells; format: binding; settings: anti-Myc immunoprecipitation, anti-actin Western blot
Experimental: Western Blot and Co-immunoprecipitation Assay. Immunoprecipitation and western blot analysis was performed as described previously (Lu et al., 2000). For immunoprecipitation, cells were incubated with 1 μg anti c-myc polyclonal antibody A14 (Santa Cruz). Western blots were performed with anti-actin monoclonal antibody C4 (1:100; Roche Molecular Biochemicals) or anti c-myc monoclonal antibody 9E10 (1:1000; Santa Cruse) followed by incubation with secondary antibody HRP-conjugated anti mouse-IgG (Santa Cruse, Vector). To detect signals, blots were incubated with ECL (Santa Cruz) for 1 min, and exposed to film (Eastman Kodak Co).

Row | Molecule | association with F-actin / actin stress fibers (F-actin) | bundling of actin stress fibers (F-actin) | co-immunoprecipitation with actin (actin) | further results
1 | C=C1[C@@H](C)[C@H]2[C@H](Cc3ccccc3)NC(=O)[C@]23[C@H](OC(C)=O)/C=C/[C@@](C)(O)C(=O)[C@@H](C)C/C=C/[C@H]3[C@@H]1O [CD, cytochalasin D, reference compound] | – | – | – | increase of SM22 promoter activity by the agent itself (SM22 promoter; COS cells, 2 μM CD, without STARS): 8 fold; stress fibers observed (F-actin): only short fragments of disrupted stress fibers
2 | RhoA L63: constitutively active RhoA mutant, expression vector [reference compound] | – | – | – | activation of the SM22 promoter (SM22 promoter; COS cells, STARS and RhoA L63 together): higher levels; activation of the SM22 promoter (SM22 promoter; COS cells, STARS or RhoA (L63) expression vector alone): comparable levels
3 | C[C@@H](N)[C@H]1CC[C@H](C(=O)Nc2ccncc2)CC1 [Y-27632, reference compound] | – | – | – | effect on SRF / SM22 promoter activation by STARS, in words (discussion) (SM22 promoter): only partially inhibits; effect on SRF / SM22 promoter activation by STARS, in words (discussion) (SM22 promoter; listed as Y27632): decreased SM22 promoter activity significantly; reduction of the stimulatory activity of STARS on the SM22 promoter (SM22 promoter; COS cells, Y-27632 75 μM): 55%
4 | C/C1=C/C(=O)O[C@@H]2C[C@@H](CC[C@H](C)/C=C\CC1)O[C@@](O)([C@@H]1CSC(=O)N1)C2 [LB, latrunculin B, reference compound] | – | – | – | effect on SRF / SM22 promoter activation by STARS, in words (discussion) (SM22 promoter): inhibit the activity of STARS; SM22-luciferase activity under LB treatment (SM22 promoter; COS cells, 0.5 μM LB, even in cells transfected with STARS): abolished; stress fibers observed (F-actin): only short fragments of disrupted stress fibers
5 | N346: STARS deletion mutant lacking residues from the carboxy-terminus into the conserved region (protein, left off: small tags and cut ends, STARS deletion mutant lacking residues from the carboxy-terminus into the conserved region) MAPGEKESGEGPAKSALRKIRTATLVISLARGWQQWANENSIRQAQEPTGWLPGGTQDSPQAPKPITPPTSHQKAQSAPKSPPRLPEGHGDGQSSEKAPEVSHIKKKEVSKTVVSKTYERGGDVSHLSHRYERDAGVLEPGQPENDIDRILHSHGSPTRRRKCANLVSELTKGWRVMEQEEPTWRSDSVDTEDSGYGGEAEERPEQDGVQVAVVRIKRPLPSQVNRFTEKLNCKAQQKYSPVGNLKGRWQQWADEHIQSQKLNPFSEEFDYELAMSTRLHKGDEGYGRPKEGTKTAERAKRAEEHIYREMMDMCFIICTMARHRRDGKIQVTFGDLFDRYVRISDK | did not affect the association with F-actin | abolished the ability of STARS to bundle actin stress fibers | did not bind actin | –
6 | Del234-279: larger internal STARS deletion mutant within the conserved region (protein, left off: small tags and cut ends, larger internal STARS deletion mutant within the conserved region) MAPGEKESGEGPAKSALRKIRTATLVISLARGWQQWANENSIRQAQEPTGWLPGGTQDSPQAPKPITPPTSHQKAQSAPKSPPRLPEGHGDGQSSEKAPEVSHIKKKEVSKTVVSKTYERGGDVSHLSHRYERDAGVLEPGQPENDIDRILHSHGSPTRRRKCANLVSELTKGWRVMEQEEPTWRSDSVDTEDSGYGGEAEERPEQDGVQVAVVRIKRPLPSQVNRFTEKLNCHKGDEGYGRPKEGTKTAERAKRAEEHIYREMMDMCFIICTMARHRRDGKIQVTFGDLFDRYVRISDKVVGILMRARKHGLVDFEGEMLWQGRDDHV | able to associate with F-actin | lost the ability to bundle actin fibers | failed to co-immunoprecipitate | –
7 | N304: STARS deletion mutant lacking residues from the carboxy-terminus into the conserved region (protein, left off: small tags and cut ends, STARS deletion mutant lacking residues from the carboxy-terminus into the conserved region) MAPGEKESGEGPAKSALRKIRTATLVISLARGWQQWANENSIRQAQEPTGWLPGGTQDSPQAPKPITPPTSHQKAQSAPKSPPRLPEGHGDGQSSEKAPEVSHIKKKEVSKTVVSKTYERGGDVSHLSHRYERDAGVLEPGQPENDIDRILHSHGSPTRRRKCANLVSELTKGWRVMEQEEPTWRSDSVDTEDSGYGGEAEERPEQDGVQVAVVRIKRPLPSQVNRFTEKLNCKAQQKYSPVGNLKGRWQQWADEHIQSQKLNPFSEEFDYELAMSTRLHKGDEGYGRPKEGTKTAERAKRAEE | did not affect the association with F-actin | abolished the ability of STARS to bundle actin stress fibers | did not bind actin | –
8 | N279: STARS deletion mutant lacking residues from the carboxy-terminus into the conserved region (protein, left off: small tags and cut ends, STARS deletion mutant lacking residues from the carboxy-terminus into the conserved region) MAPGEKESGEGPAKSALRKIRTATLVISLARGWQQWANENSIRQAQEPTGWLPGGTQDSPQAPKPITPPTSHQKAQSAPKSPPRLPEGHGDGQSSEKAPEVSHIKKKEVSKTVVSKTYERGGDVSHLSHRYERDAGVLEPGQPENDIDRILHSHGSPTRRRKCANLVSELTKGWRVMEQEEPTWRSDSVDTEDSGYGGEAEERPEQDGVQVAVVRIKRPLPSQVNRFTEKLNCKAQQKYSPVGNLKGRWQQWADEHIQSQKLNPFSEEFDYELAMSTRL | did not affect the association with F-actin | abolished the ability of STARS to bundle actin stress fibers | did not bind actin | –
9 | C96: STARS deletion mutant within the conserved region (protein, left off: small tags and cut ends, STARS deletion mutant within the conserved region) HKGDEGYGRPKEGTKTAERAKRAEEHIYREMMDMCFIICTMARHRRDGKIQVTFGDLFDRYVRISDKVVGILMRARKHGLVDFEGEMLWQGRDDHV | did not affect the association with F-actin; also recorded: just associates with actin stress fibers | abolished the ability of STARS to bundle actin stress fibers | – | –
10 | N323: STARS deletion mutant lacking residues from the carboxy-terminus into the conserved region (protein, left off: small tags and cut ends, STARS deletion mutant lacking residues from the carboxy-terminus into the conserved region) MAPGEKESGEGPAKSALRKIRTATLVISLARGWQQWANENSIRQAQEPTGWLPGGTQDSPQAPKPITPPTSHQKAQSAPKSPPRLPEGHGDGQSSEKAPEVSHIKKKEVSKTVVSKTYERGGDVSHLSHRYERDAGVLEPGQPENDIDRILHSHGSPTRRRKCANLVSELTKGWRVMEQEEPTWRSDSVDTEDSGYGGEAEERPEQDGVQVAVVRIKRPLPSQVNRFTEKLNCKAQQKYSPVGNLKGRWQQWADEHIQSQKLNPFSEEFDYELAMSTRLHKGDEGYGRPKEGTKTAERAKRAEEHIYREMMDMCFIICTMARH | did not affect the association with F-actin | abolished the ability of STARS to bundle actin stress fibers | did not bind actin | –
